Here are results for nine molecules from patent US20150320880A1, “ANTIBODY DRUG CONJUGATES” (NOVARTIS AG, priority 2013, published 2015).

The labels stand for the following.
B1: NEG087: anti-cKIT antibody of Table 1; VH SEQ ID NO 118, VL SEQ ID NO 127 (antibody, V domains shown)
VH: EVQLVESGGGLVQPGGSLRLSCAASGFTFSDYYMAWVRQAPGKGLEWVASINQNTGSTYYLDSVRGRFTISRDNAKNSLYLQMNSLRAEDTAVYYCARGDYYGTTYWYFDVWGQGTTVTVSS
VL: DIQMTQSPSSLSASVGDRVTITCRASQSISSYLNWYQQKPGKAPKLLIYYTSRLQSGVPSRFSGSGSGTDFTLTISSLQPEDFATYYCQQGRRLWSFGGGTKVEIK
B2: NEG086: anti-cKIT antibody of Table 1; VH SEQ ID NO 100, VL SEQ ID NO 109 (antibody, V domains shown)
VH: B1 VH with S50N, N54I, T55A, L61V, R65Q
VL: B1 VL
B3: NEG027: anti-cKIT antibody of Table 1; VH SEQ ID NO 64, VL SEQ ID NO 73 (antibody, V domains shown)
VH: B1 VH
VL: EIVMTQSPATLSLSPGERATLSCRASQDISNYLNWYQQKPGQAPRLLIYYTSRLQSGIPARFSGSGSGTDYTLTISSLEPEDFAVYYCQQGKKLWSFGGGTKVEIK
B4: NEG026: anti-cKIT antibody of Table 1; VH SEQ ID NO 46, VL SEQ ID NO 55 (antibody, V domains shown)
VH: B1 VH with S50N, L61V, R65Q
VL: B3 VL
B5: NEG086 (antibody, human IgG1, kappa, V domains shown)
VH: B1 VH with S50N, N54I, T55A, L61V, R65Q
VL: DIQMTQSPSSLSASVGDRVTITCRASQSISSYLNWYQQKPGKAPKLLIYYTSRLQSGVPSRFSGSGSGTDFTLTISSLQPEDFATYYCQQGRRLWSFGGGTKVEIKR
notes: Humanized, optimized variant of 9P3; human IgG1 kappa
B6: NEG085 (antibody, human IgG1, kappa, V domains shown)
VH: B1 VH with T28A, D31G, S50N, Q53Y, N54P, T55G, G56S, R65K
VL: B5 VL
notes: Humanized, optimized variant of 9P3; human IgG1 kappa; also called unconjugated NEG085
B7: NEG024 (antibody, human IgG1, kappa, V domains shown)
VH: B1 VH with S50N, N54I, T55A
VL: EIVMTQSPATLSLSPGERATLSCRASQDISNYLNWYQQKPGQAPRLLIYYTSRLQSGIPARFSGSGSGTDYTLTISSLEPEDFAVYYCQQGKKLWSFGGGTKVEIKR
notes: as for B5
B8: NEG086-MCC-DM1 (antibody, human IgG1, kappa, V domains shown)
VH: B1 VH with S50N, N54I, T55A, L61V, R65Q
VL: B5 VL
modifications: DM1 linked through the MCC (SMCC) linker to primary amines of the antibody, sites not stated; DM1 linked through the MCC (SMCC) linker to primary amines of the antibody, sites not stated; average MAR 3.5 (Table 7)
notes: Antibody drug conjugate of NEG086
B9: NEG085-MCC-DM1 (antibody, human IgG1, kappa, V domains shown)
VH: B1 VH with T28A, D31G, S50N, Q53Y, N54P, T55G, G56S, R65K
VL: B5 VL
modifications: DM1 linked through the MCC (SMCC) linker to primary amines of the antibody, sites not stated; DM1 linked through the MCC (SMCC) linker to primary amines of the antibody, sites not stated; average MAR 3.5 (Table 7)
notes: Antibody drug conjugate of NEG085

Numbering of substitutions follows the chain as printed.

The target in one test is T1, human cKIT ECD (Homo sapiens, UniProt P10721).
T1 construct: Human cKIT tr. variant 2, residues 26-520-TAG; made in house; host or cells: HEK293 derived cell lines (293FS), transient transfection
T1 sequence (P10721 with tags, fused parts or gaps isoform P10721-2): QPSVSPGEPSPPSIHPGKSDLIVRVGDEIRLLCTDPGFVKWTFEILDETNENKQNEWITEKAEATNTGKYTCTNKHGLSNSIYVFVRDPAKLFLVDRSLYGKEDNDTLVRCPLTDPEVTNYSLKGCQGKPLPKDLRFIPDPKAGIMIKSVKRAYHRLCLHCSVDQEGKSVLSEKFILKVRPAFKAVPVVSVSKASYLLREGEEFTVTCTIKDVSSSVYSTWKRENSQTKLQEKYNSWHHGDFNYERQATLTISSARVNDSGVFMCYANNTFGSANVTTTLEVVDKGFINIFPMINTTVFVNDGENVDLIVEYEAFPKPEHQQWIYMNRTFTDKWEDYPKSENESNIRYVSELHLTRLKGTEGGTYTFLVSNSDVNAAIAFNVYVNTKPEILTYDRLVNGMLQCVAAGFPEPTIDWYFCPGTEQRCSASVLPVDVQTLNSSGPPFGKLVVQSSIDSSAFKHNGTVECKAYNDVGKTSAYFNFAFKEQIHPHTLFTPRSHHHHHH
Put plainly: SPR (Biacore 2000) affinity measurement. It counts as binding. To be noted: 25° C. As for the experimental part:
(§1) Affinity of the antibodies to cKIT species orthologues and also to cKIT was determined using SPR technology using a Biacore® 2000 instrument (GE Healthcare, Pittsburgh, Pa.) and with CM5 sensor chips.
(§2) Briefly, HBS-P (0.01 M HEPES, pH 7.4, 0.15 M NaCl, 0.005% Surfactant P20) supplemented with 2% Odyssey® blocking buffer (Li-Cor Biosciences, Lincoln, Nebr.) was used as the running buffer for all the experiments. The immobilization level and analyte interactions were measured by response unit (RU). Pilot experiments were performed to test and confirm the feasibility of the immobilization of the anti-human Fc antibody (Catalog number BR100839, GE Healthcare, Pittsburgh, Pa.) and the capture of the test antibodies.
(§3) For kinetic measurements, the experiments were performed in which the antibodies were captured to the sensor chip surface via the immobilized anti-human Fc antibody and the ability of the cKIT proteins to bind in free solution was determined Briefly, 25 μg/ml of anti-human Fc antibody at pH 5 was immobilized on a CM5 sensor chip through amine coupling at flow rate of 5 μl/minute on all two flow cells to reach 10,500 RUs. 0.1-1 μg/ml of test antibodies were then injected at 10 μl/min for 1 minute. Captured levels of the antibodies were generally kept below 200 RUs. Subsequently, 3.125-50 nM of cKIT receptor extracellular domains (ECD) were diluted in a 2-fold series and injected at a flow rate of 40 μl/min for 3 min over both reference and test flow cells. Table of tested ECDs is listed below. Dissociation of the binding was followed for 10 min. After each injection cycle, the chip surface was regenerated with 3 M MgCl2 at 10 μl/min for 30 s.
In the case of B1, the “Affinity human cKIT (nM)” value is given as “nanomolar level”.
For B2, the “Affinity human cKIT (nM)” value is “nanomolar level”.
The same measure, in the same setting: under B3 stands “nanomolar level”.

A further test addresses mouse cKIT ECD. Put plainly: SPR (Biacore 2000) affinity measurement. In kind it is binding. The note with it: 25° C. As for the experimental part: as §1, §2, §3
Background: In SPR one partner is held on a chip, and binding of the other changes the refractive index at the surface.
As to B4, the “Affinity mouse cKIT (nM)” value was “Not reactive”.
Consider B1, for which the “Affinity mouse cKIT (nM)” value was “Not reactive”.
Still for that read-out and setting: the same measure for B2: “Not reactive”; for B3: “Not reactive”.

A further test addresses T2, Mouse cKIT ECD, C-terminal 6x His (Sino Biological Inc, catalog number 50530-M08H) (mouse, UniProt P05532 25-527).
T2 construct: extracellular domain; Bought protein
T2 sequence (looked up): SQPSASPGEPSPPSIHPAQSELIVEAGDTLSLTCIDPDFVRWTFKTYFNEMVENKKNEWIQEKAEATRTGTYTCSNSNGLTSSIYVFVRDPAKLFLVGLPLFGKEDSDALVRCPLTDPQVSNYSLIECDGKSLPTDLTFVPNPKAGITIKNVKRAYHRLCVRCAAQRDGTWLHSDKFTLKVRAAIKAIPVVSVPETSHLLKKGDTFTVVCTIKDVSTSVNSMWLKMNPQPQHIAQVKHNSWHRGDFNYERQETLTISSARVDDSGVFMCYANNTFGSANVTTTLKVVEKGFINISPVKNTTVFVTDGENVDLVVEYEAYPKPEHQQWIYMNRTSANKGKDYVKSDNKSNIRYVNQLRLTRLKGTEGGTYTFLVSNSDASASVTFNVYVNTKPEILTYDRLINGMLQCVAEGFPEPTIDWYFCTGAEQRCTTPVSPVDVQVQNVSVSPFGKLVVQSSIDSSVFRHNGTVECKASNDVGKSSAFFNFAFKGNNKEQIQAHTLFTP
Put plainly: SPR (Biacore 2000), antibody captured on anti-human Fc.
Details: not given
On to B5, for which the binding result is reported as “no binding (tested: 3.125-50 nM of cKIT ECD injected)”.
The same measure, in the same setting: under B6 stands “no binding (tested: 3.125-50 nM of cKIT ECD injected)”; under B7, “no binding (tested: 3.125-50 nM of cKIT ECD injected)”.

The target in another test is T3, Rat cKIT D1-5 (residues 25-526, C-terminal mFc) (rat).
T3 construct: The entry includes the linker and mouse Fc tag; also called rat cKIT-mFc
T3 chain: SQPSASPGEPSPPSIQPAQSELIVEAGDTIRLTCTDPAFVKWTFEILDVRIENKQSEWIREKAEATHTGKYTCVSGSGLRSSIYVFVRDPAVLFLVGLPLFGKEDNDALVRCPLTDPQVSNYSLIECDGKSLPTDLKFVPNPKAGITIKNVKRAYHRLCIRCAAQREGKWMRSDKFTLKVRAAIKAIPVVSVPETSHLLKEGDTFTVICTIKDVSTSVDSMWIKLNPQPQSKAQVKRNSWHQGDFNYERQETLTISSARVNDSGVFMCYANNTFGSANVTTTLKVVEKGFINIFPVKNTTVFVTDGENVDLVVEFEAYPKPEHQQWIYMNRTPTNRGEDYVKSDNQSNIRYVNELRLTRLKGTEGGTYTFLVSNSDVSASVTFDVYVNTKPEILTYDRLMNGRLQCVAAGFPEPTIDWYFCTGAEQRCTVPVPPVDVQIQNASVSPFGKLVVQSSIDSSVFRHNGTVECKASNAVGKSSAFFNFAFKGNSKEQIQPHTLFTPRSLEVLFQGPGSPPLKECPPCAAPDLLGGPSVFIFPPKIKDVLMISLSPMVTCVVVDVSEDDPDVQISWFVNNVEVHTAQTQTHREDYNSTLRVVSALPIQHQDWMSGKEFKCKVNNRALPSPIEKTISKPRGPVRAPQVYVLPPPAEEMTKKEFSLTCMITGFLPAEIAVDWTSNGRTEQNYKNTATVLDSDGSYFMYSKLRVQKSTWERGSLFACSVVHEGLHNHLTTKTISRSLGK
The test is described as above.
Details: not given
Turning to B5, the binding result is “no binding (tested: 3.125-50 nM of cKIT ECD injected)”.
The same measure, in the same setting: the same measure for B6: “no binding (tested: 3.125-50 nM of cKIT ECD injected)”; for B7: “no binding (tested: 3.125-50 nM of cKIT ECD injected)”.

The next test deals with T4, Human cKIT D1-5 (human cKIT tr. variant 2, residues 26-520, C-terminal His tag) (human, UniProt P10721 26-524).
T4 construct: also called human cKIT ECD; Human c-Kit ECD
T4 sequence (P10721 other isoform, or with tags, fused parts or gaps mutant limits assumed): as the sequence (P10721 with tags, fused parts or gaps isoform P10721-2) above
Put plainly: SPR (Biacore T100), CM5 chip, method as in Example 7; MCC-DM1 conjugate.
Details: not given
Broadly, the Kd is the constant that tells how readily two partners part at equilibrium. In turn, B8 had a Kd of 1.8 nM.
B9 registered a Kd of 5.2 nM.

A further test deals with T4, Human cKIT D1-5 (human cKIT tr. variant …). Put plainly: SPR (Biacore T100), CM5 chip, method as in Example 7; unconjugated antibody.
Details: not given
Consider B5, for which binding was characterised by a dissociation constant (Kd) of 1.4 nM.
On the same count and under the same terms, the same measure for B6: 4.2 nM; for B7: 1.3 nM.

For another test the target is unchanged. In words: SPR (Biacore 2000), antibody captured on anti-human Fc, cKIT ECD as analyte, 25 C, 1:1 fit.
Details: not given
As for B5, binding was put at a Kd of 1.44 nM.
Still for that read-out and setting: the same measure for B6: 8.4 nM; for B7: 1.31 nM.

A further test has as its target T5, Cynomolgus monkey cKIT D1-5 (residues 25-520, C-terminal His tag) (cynomolgus monkey, UniProt P10721 25-520 (human entry)).
T5 construct: the signal peptide was not part of the protein in the assay; also called cyno cKIT; cynomolgus monkey ECD
T5 chain: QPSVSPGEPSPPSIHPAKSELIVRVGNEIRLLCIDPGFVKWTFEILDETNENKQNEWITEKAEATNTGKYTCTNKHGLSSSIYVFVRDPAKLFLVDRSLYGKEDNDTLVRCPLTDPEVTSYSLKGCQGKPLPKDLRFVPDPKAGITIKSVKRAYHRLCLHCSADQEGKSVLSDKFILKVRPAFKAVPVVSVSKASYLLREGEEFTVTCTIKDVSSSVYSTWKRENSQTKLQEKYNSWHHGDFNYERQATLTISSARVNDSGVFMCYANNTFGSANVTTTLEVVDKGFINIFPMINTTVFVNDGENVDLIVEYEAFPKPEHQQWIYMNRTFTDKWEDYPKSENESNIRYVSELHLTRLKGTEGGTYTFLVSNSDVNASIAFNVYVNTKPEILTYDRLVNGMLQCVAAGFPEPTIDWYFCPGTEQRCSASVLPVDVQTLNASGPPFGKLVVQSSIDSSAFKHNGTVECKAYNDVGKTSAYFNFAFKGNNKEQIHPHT
Described as above.
Details: not given
For the molecule B5, the affinity, expressed as Kd, was 1.34 nM.
Same read-out and setting: the same measure for B6: 6.14 nM.
Still for that read-out and setting: the same measure for B7: 1.15 nM.
